From US6950754
One block for each binder: values may come before it.

Assays:
6D = assay: size exclusion chromatography, self-association
6A = assay: size exclusion chromatography, self-association
6F = assay: size exclusion chromatography, self-association
6C = assay: size exclusion chromatography, self-association
6E = assay: size exclusion chromatography, self-association
pda8d [1] = assay: sedimentation equilibrium, monomer-dimer-tetramer model; monomer-to-dimer self-association
pda8d [2] = assay: sedimentation equilibrium, monomer-dimer-tetramer model; dimer-to-tetramer self-association
6B = assay: size exclusion chromatography, self-association

Binder: RMEKLEDKVRELLRKNRRLEEEVRRLKELVGER (modifications not checked) [6A]
- oligomerization state (N) (6A): 2

Binder: RMARLEAKVAALLAKNRRLEREVARLKALVGER (modifications not checked) [6C]
- oligomerization state (N) (6C): 2

Binder: RMNTLERKVAKLLSKNANLEHEVNTLKQLVGER (modifications not checked) [6E]
- oligomerization state (N) (6E): 2

Binder: RMEKLEQKVKELLRKNERLEEEVERLKQLVGER (modifications not checked) [6B]
- oligomerization state (N) (6B): 2

The remaining lines, values ahead:

- oligomerization state (N) (6D): 2
Binder: RMRELEEKVRRLLRKNEDLEREVKRLKELVGER (modifications not checked) [6D]

- oligomerization state (N) (6F): 4
Binder: RMAALEAKVAALLAKNAALEAEVAALKALVGER (modifications not checked) [6F]

- Kd (pda8d [1]): 0.5 to 1.5 mM
- Kd (pda8d [2]): > 4 mM
Binder: KPYTARIKGRTFSNEKELRDFLETFTGR (modifications not checked) [pda8d]
